Measured values reported in patent US20120058906A1 (published 2012).

Legend:
[1] = target: T1, rHuman HGF R/c-MET/Fc Chimera, CF (R&D Systems Cat#358-MT/CF) (human, UniProt P08581 25-932); test: MSD ECL multi-spot plate; Fab 8.1 nM; blank spot 435
T1 construct: also called HGF R/Fc; hepatocyte growth factor receptor; Fc part of the bought chimera not given

[2] = target: T2, rHuman Notch-1/Fc Chimera, CF (R&D Systems Cat#3647-TK) (human, UniProt P46531 19-526); test: as above
T2 construct: Fc part of the bought chimera not given

[3] = target: T3, rHuman Erythropoietin R/Fc Chimera, CF (R&D Systems Cat#963-ER) (human, UniProt P19235 25-250); test: as above
T3 construct: also called EPO R/Fc; Epo R; Fc part of the bought chimera not given
T3 sequence: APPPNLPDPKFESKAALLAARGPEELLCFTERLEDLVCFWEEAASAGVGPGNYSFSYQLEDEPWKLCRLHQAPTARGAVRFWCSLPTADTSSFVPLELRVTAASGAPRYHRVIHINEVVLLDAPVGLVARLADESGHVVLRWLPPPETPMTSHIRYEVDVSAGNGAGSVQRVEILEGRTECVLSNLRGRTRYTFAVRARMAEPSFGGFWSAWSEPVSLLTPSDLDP

[4] = target: T4, rHuman IGF-1 sR, (IGF-1 sR), CF (R&D Systems Cat#391-GR) (human, UniProt P08069 31-932); test: as above
T4 construct: also called insulin-like growth factor-1 soluble receptor; IGF-R1

[5] = target: T5, rHuman EGF R/Fc Chimera, CF (R&D Systems Cat#344-ER) (human, UniProt P00533 25-645); test: as above
T5 construct: also called epidermal growth factor receptor; Fc part of the bought chimera not given

[6] = target: T6, Recombinant Human DLL4 (R&D Systems Cat#1506-D4/CF) (human, UniProt Q9NR61 27-524); test: as above
T6 construct: also called delta-like protein 4

[7] = target: T7, rHuman CD44/Fc Chimera, CF (R&D Systems Cat#3660-CD) (human, UniProt P16070 21-220); test: as above
T7 construct: Fc part of the bought chimera not given

[8] = target: T8, rHuman ErbB2/Fc Chimera, CF (R&D Systems Cat#1129-ER) (human, UniProt P04626 23-652); test: as above
T8 construct: also called HER2/neu; human epidermal growth factor 2 receptor; Fc part of the bought chimera not given

[9] = target: T9, rHuman CD44/Fc Chimera, CF (R&D Systems Cat#3660-CD) (human, UniProt P16070 21-220); test: ECL (MSD Multi-Spot) binding assay, antigen spotted on plate; Fab 51 nM; blank spot 335
T9 construct: Bought Fc chimera; Fc part of the bought chimera not given

[10] = target: T10, Recombinant Human DLL4 (R&D Systems Cat#1506-D4/CF) (human, UniProt Q9NR61 27-524); test: as above
T10 construct: Bought recombinant protein; also called delta-like protein 4; rHuman DLL4

[11] = target: T11, rHuman EGF R/Fc Chimera, CF (R&D Systems Cat#344-ER) (human, UniProt P00533 25-645); test: as above
T11 construct: Bought Fc chimera; also called epidermal growth factor receptor; Fc part of the bought chimera not given

[12] = target: T12, rHuman IGF-1 sR (IGF-1 sR), CF (R&D Systems Cat#391-GR) (human, UniProt P08069 31-932); test: as above
T12 construct: Bought soluble receptor; also called insulin-like growth factor-1 soluble receptor; IGF-R1

[13] = target: T13, rHuman Notch-1/Fc Chimera, CF (R&D Systems Cat#3647-TK) (human, UniProt P46531 19-526); test: as above
T13 construct: Bought Fc chimera; Fc part of the bought chimera not given

[14] = target: T14, rHuman Erythropoietin R/Fc Chimera, CF (R&D Systems Cat#963-ER) (human, UniProt P19235 25-250); test: as above
T14 construct: Bought Fc chimera; also called EPO R/Fc; Epo R; Fc part of the bought chimera not given
T14 sequence: T3 sequence

[15] = target: T15, rHuman ErbB2/Fc Chimera, CF (R&D Systems Cat#1129-ER) (human, UniProt P04626 23-652); test: as above
T15 construct: Bought Fc chimera; also called HER2/neu; human epidermal growth factor 2 receptor; Fc part of the bought chimera not given

[16] = target: T9, rHuman CD44/Fc Chimera, CF (R&D Systems …); test: ECL (MSD Multi-Spot) binding assay, antigen spotted on plate; Fab 7.5 nM; blank spot 217
[17] = target: T13, rHuman Notch-1/Fc Chimera, CF (R&D …); test: as above
[18] = target: T14, rHuman Erythropoietin R/Fc Chimera, CF …; test: as above
[19] = target: T16, rHuman P-Cadherin/Fc Chimera, CF (R&D Systems Cat#861-PC) (human, UniProt P22223 108-654); test: as above
T16 construct: Bought Fc chimera; also called CDH3; Fc part of the bought chimera not given
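Note: blank spot per well as comparator with Hit at signal to blank ratio of 4 or more.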

B1: Fab VH1-8_IGHD2-2*01_IGHJ6*01 & L12_IGKJ1*01 (Fab, V domains shown)
VH: QVQLVQSGAEVKKPGASVKVSCKASGYTFTSYDINWVRQATGQGLEWMGWMNPNSGNTGYAQKFQGRVTMTRNTSISTAYMELSSLRSEDTAVYYCARGGYCSSTSCYADYYYYYGMDVWGQGTTVTVSS
VL: not shown
Work on B1 yielded an ECL signal [1] of 551 ECL signal, an ECL signal [2] of 612 ECL signal and an ECL signal [3] of 660 ECL signal. It also gave an ECL signal [4] of 518 ECL signal, an ECL signal [5] of 560 ECL signal and an ECL signal [6] of 1550 ECL signal. The ECL signal [7] was 528 ECL signal and the ECL signal [8] was 557 ECL signal.

B2: Fab VH5-51_IGHD5-18*01>3_IGHJ4*01 & V3-4_IGLJ1*01 (Fab, V domains shown)
VH: EVQLVQSGAEVKKPGESLKISCKGSGYSFTSYWIGWVRQMPGKGLEWMGIIYPGDSDTRYSPSFQGQVTISADKSISTAYLQWSSLKASDTAMYYCARRGYSYGYDYFDYWGQGTLVTVSS
VL: QTVVTQEPSFSVSPGGTVTLTCGLSSGSVSTSYYPSWYQQTPGQAPRTLIYSTNTRSSGVPDRFSGSILGNKAALTITGAQADDESDYYCVLYMGSGISYVFGTGTKVTVL
notes: Tested as a Fab made in E. coli; also called IGHV5-51*03
In the case of B2, the ECL signal [9] is reported as 651, the ECL signal [10] is reported as 17000 and the ECL signal [11] is reported as 816. It also gave an ECL signal [12] of 1050, an ECL signal [13] of 685 and an ECL signal [14] of 750. It also gave an ECL signal [15] of 1250.

B3: Fab VH6-1_IGHD3-3*01_IGHJ4*01 & V4-3_IGLJ4*01 (Fab, V domains shown)
VH: QVQLQQSGPGLVKPSQTLSLTCAISGDSVSSNSAAWNWIRQSPSRGLEWLGRTYYRSKWYNDYAVSVKSRITINPDTSKNQFSLQLNSVTPEDTAVYYCAREYYDFWSGYYTDYFDYWGQGTLVTVSS
VL: QPVLTQPTSLSASPGASARLTCTLRSGINLGSYRIFWYQQKPESPPRYLLSYYSDSSKHQGSGVPSRFSGSKDASSNAGILVISGLQSEDEADYYCMIWHSSASFVFGGGTQLIIL
notes: Tested as a Fab made in E. coli; also called IGHV6-1*01
Binder B3 has an ECL signal [16] of 444, an ECL signal [17] of 392 and an ECL signal [18] of 443. It also gave an ECL signal [19] of 352.
